Columns and labels:
Hera_208-419 (RecA_C_DD) = target: T1, Hera_208-419 (RecA_C_DD) (Thermus thermophilus, UniProt O07897 208-419); experiment: fluorescence anisotropy; 5 mM Mg2+; compared with full-length Hera; Anisotropy: 50 mM Tris/HCl pH 7.5, 150 mM NaCl, 5 mM MgCl2 (Fig 2), 25 C, 50 nM RNA; EMSA: same Tris/NaCl, 12% glycerol, 25 C; NMR: 25 mM Bis-Tris/HCl pH 6.0, 50 mM NaCl, 10% D2O, 37 C; details: protein: recombinant; chain copies: 2; label: 5'-fluorescein; hairpin with 5' single strand
T1 sequence: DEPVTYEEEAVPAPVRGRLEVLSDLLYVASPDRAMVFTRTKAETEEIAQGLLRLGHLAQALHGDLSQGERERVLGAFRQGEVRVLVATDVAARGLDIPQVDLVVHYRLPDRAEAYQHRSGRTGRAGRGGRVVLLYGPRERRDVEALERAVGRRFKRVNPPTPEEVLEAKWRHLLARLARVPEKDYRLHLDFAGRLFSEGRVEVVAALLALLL

Hera_RBD K439A = target: T2, Hera_RBD K439A (Thermus thermophilus, UniProt O07897 424-510, K439A); experiment: fluorescence anisotropy; 5 mM Mg2+; Anisotropy: 50 mM Tris/HCl pH 7.5, 150 mM NaCl, 5 mM MgCl2 (Fig 2), 25 C, 50 nM RNA; EMSA: same Tris/NaCl, 12% glycerol, 25 C; NMR: 25 mM Bis-Tris/HCl pH 6.0, 50 mM NaCl, 10% D2O, 37 C; details: protein: recombinant; label: 5'-fluorescein; hairpin with 5' single strand
T2 sequence: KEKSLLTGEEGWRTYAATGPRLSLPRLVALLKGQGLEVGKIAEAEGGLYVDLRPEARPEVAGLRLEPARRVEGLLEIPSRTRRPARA

Hera_RBD R449A = target: T3, Hera_RBD R449A (Thermus thermophilus, UniProt O07897 424-510, R449A); experiment: as above; details: protein: recombinant; label: 5'-fluorescein; hairpin with 5' single strand
T3 sequence: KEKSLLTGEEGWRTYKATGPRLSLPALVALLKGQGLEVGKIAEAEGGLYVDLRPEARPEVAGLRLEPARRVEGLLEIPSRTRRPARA

Hera_RBD R487A = target: T4, Hera_RBD R487A (Thermus thermophilus, UniProt O07897 424-510, R487A); experiment: as above; details: protein: recombinant; label: 5'-fluorescein; hairpin with 5' single strand
T4 sequence: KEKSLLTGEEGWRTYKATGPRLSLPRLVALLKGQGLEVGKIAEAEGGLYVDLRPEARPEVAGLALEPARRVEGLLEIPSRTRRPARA

Hera_RBD Q457C = target: T5, Hera_RBD Q457C (Thermus thermophilus, UniProt O07897 424-510, Q457C); experiment: as above; details: protein: recombinant; label: 5'-fluorescein; hairpin with 5' single strand
T5 sequence: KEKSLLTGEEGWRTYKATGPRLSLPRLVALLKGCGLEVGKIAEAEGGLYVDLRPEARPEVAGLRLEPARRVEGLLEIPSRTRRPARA

Hera_RBD R444A/R449A = target: T6, Hera_RBD R444A/R449A (Thermus thermophilus, UniProt O07897 424-510, R444A;R449A); experiment: as above; details: protein: recombinant; label: 5'-fluorescein; hairpin with 5' single strand
T6 sequence: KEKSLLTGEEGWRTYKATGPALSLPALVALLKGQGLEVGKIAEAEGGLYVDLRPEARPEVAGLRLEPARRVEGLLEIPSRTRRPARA

Hera_RBD K455A = target: T7, Hera_RBD K455A (Thermus thermophilus, UniProt O07897 424-510, K455A); experiment: as above; details: protein: recombinant; label: 5'-fluorescein; hairpin with 5' single strand
T7 sequence: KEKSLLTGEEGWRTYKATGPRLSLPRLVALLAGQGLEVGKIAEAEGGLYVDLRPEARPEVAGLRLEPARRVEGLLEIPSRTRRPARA

GST-Hera_RBD = target: T8, GST-Hera_RBD (Thermus thermophilus, UniProt O07897 424-510); experiment: EMSA; 6 uM RNA; 12% glycerol; Anisotropy: 50 mM Tris/HCl pH 7.5, 150 mM NaCl, 5 mM MgCl2 (Fig 2), 25 C, 50 nM RNA; EMSA: same Tris/NaCl, 12% glycerol, 25 C; NMR: 25 mM Bis-Tris/HCl pH 6.0, 50 mM NaCl, 10% D2O, 37 C; details: protein: recombinant; tags: N-terminal GST; label: 5'-fluorescein; hairpin with 5' single strand
T8 sequence: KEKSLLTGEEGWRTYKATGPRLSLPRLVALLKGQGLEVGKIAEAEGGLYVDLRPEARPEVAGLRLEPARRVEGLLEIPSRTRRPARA

B1: 32mer (structured_RNA)
RNA: GCAGGUCCCAAGGGUUGGGCUGUUCGCCCAUU
binding signal (Hera_208-419 (RecA_C_DD)): ~70 fold Kd increase | binding signal (Hera_RBD K439A): < 5 fold Kd increase | binding signal (Hera_RBD R449A): > 25 fold Kd increase | binding signal (Hera_RBD R487A): < 5 fold Kd increase | binding signal (Hera_RBD Q457C): < 5 fold Kd increase | binding signal (Hera_RBD R444A/R449A): > 25 fold Kd increase | binding signal (Hera_RBD K455A): < 5 fold Kd increase | Kd (GST-Hera_RBD): ~7 µM
